Data reported in ChEMBL document CHEMBL4043061, “Potent, Selective, Allosteric Inhibition of Human Plasmin by Sulfated Non-Saccharide Glycosaminoglycan Mimetics” (J Med Chem, 2017).

Assays:
[1] = substrate: O=c1c(OS(=O)(=O)O)c(-c2ccc(OS(=O)(=O)O)c(OS(=O)(=O)O)c2)oc2cc(OS(=O)(=O)O)cc(OCc3ccc(COc4cc(OS(=O)(=O)O)cc5oc(-c6ccc(OS(=O)(=O)O)c(OS(=O)(=O)O)c6)c(OS(=O)(=O)O)c(=O)c45)cc3)c12; details: Homo sapiens; 100 uM
[2] = substrate: O=c1c(O)c(-c2ccc(O)c(O)c2)oc2cc(O)cc(OCc3ccc(COc4cc(O)cc5oc(-c6ccc(O)c(O)c6)c(O)c(=O)c45)cc3)c12; details: Homo sapiens; 240 uM
Description: Uncompetitive allosteric inhibition of human plasmin assessed as substrate Km at 240 uM using chromogenic substrate spectrozyme PL by Michaelis-Menten plot analysis

[3] = substrate: O=c1c(OS(=O)(=O)O)c(-c2ccc(OS(=O)(=O)O)c(OS(=O)(=O)O)c2)oc2cc(OS(=O)(=O)O)cc(OCc3ccc(COc4cc(OS(=O)(=O)O)cc5oc(-c6ccc(OS(=O)(=O)O)c(OS(=O)(=O)O)c6)c(OS(=O)(=O)O)c(=O)c45)cc3)c12; details: Homo sapiens; 8 uM
Description: Uncompetitive allosteric inhibition of human plasmin assessed as substrate Km at 8 uM using chromogenic substrate spectrozyme PL by Michaelis-Menten plot analysis

[4] = substrate: O=c1c(O)c(-c2ccc(O)c(O)c2)oc2cc(O)cc(OCc3ccc(COc4cc(O)cc5oc(-c6ccc(O)c(O)c6)c(O)c(=O)c45)cc3)c12; details: Homo sapiens; 100 uM
[5] = substrate: O=c1c(O)c(-c2ccc(O)c(O)c2)oc2cc(O)cc(OCc3ccc(COc4cc(O)cc5oc(-c6ccc(O)c(O)c6)c(O)c(=O)c45)cc3)c12; details: Homo sapiens; 400 uM
[6] = substrate: O=c1c(O)c(-c2ccc(O)c(O)c2)oc2cc(O)cc(OCc3ccc(COc4cc(O)cc5oc(-c6ccc(O)c(O)c6)c(O)c(=O)c45)cc3)c12; details: Homo sapiens; 400 uM; remark: listed apart in the source
[7] = substrate: O=c1c(OS(=O)(=O)O)c(-c2ccc(OS(=O)(=O)O)c(OS(=O)(=O)O)c2)oc2cc(OS(=O)(=O)O)cc(OCc3ccc(COc4cc(OS(=O)(=O)O)cc5oc(-c6ccc(OS(=O)(=O)O)c(OS(=O)(=O)O)c6)c(OS(=O)(=O)O)c(=O)c45)cc3)c12; details: Homo sapiens; 40 uM
[8] = substrate: O=c1c(OS(=O)(=O)O)c(-c2ccc(OS(=O)(=O)O)c(OS(=O)(=O)O)c2)oc2cc(OS(=O)(=O)O)cc(OCc3ccc(COc4cc(OS(=O)(=O)O)cc5oc(-c6ccc(OS(=O)(=O)O)c(OS(=O)(=O)O)c6)c(OS(=O)(=O)O)c(=O)c45)cc3)c12; details: Homo sapiens; 1.6 uM
Description: Uncompetitive allosteric inhibition of human plasmin assessed as Vmax for substrate hydrolysis at 1.6 uM using chromogenic substrate spectrozyme PL by Michaelis-Menten plot analysis

[9] = substrate: O=c1c(OS(=O)(=O)O)c(-c2ccc(OS(=O)(=O)O)c(OS(=O)(=O)O)c2)oc2cc(OS(=O)(=O)O)cc(OCc3ccc(COc4cc(OS(=O)(=O)O)cc5oc(-c6ccc(OS(=O)(=O)O)c(OS(=O)(=O)O)c6)c(OS(=O)(=O)O)c(=O)c45)cc3)c12; details: Homo sapiens; 200 uM
[10] = substrate: O=c1c(O)c(-c2ccc(O)c(O)c2)oc2cc(O)cc(OCc3ccc(COc4cc(O)cc5oc(-c6ccc(O)c(O)c6)c(O)c(=O)c45)cc3)c12; details: Homo sapiens; 100 uM; remark: listed apart in the source
[11] = substrate: O=c1c(OS(=O)(=O)O)c(-c2ccc(OS(=O)(=O)O)c(OS(=O)(=O)O)c2)oc2cc(OS(=O)(=O)O)cc(OCc3ccc(COc4cc(OS(=O)(=O)O)cc5oc(-c6ccc(OS(=O)(=O)O)c(OS(=O)(=O)O)c6)c(OS(=O)(=O)O)c(=O)c45)cc3)c12; details: Homo sapiens; 1.6 uM; remark: listed apart in the source
Description: Uncompetitive allosteric inhibition of human plasmin assessed as substrate Km at 1.6 uM using chromogenic substrate spectrozyme PL by Michaelis-Menten plot analysis

[12] = substrate: O=c1c(OS(=O)(=O)O)c(-c2ccc(OS(=O)(=O)O)c(OS(=O)(=O)O)c2)oc2cc(OS(=O)(=O)O)cc(OCc3ccc(COc4cc(OS(=O)(=O)O)cc5oc(-c6ccc(OS(=O)(=O)O)c(OS(=O)(=O)O)c6)c(OS(=O)(=O)O)c(=O)c45)cc3)c12; details: Homo sapiens; 40 uM; remark: listed apart in the source
[13] = substrate: O=c1c(OS(=O)(=O)O)c(-c2ccc(OS(=O)(=O)O)c(OS(=O)(=O)O)c2)oc2cc(OS(=O)(=O)O)cc(OCc3ccc(COc4cc(OS(=O)(=O)O)cc5oc(-c6ccc(OS(=O)(=O)O)c(OS(=O)(=O)O)c6)c(OS(=O)(=O)O)c(=O)c45)cc3)c12; details: Homo sapiens; 8 uM; remark: listed apart in the source
Description: Uncompetitive allosteric inhibition of human plasmin assessed as Vmax for substrate hydrolysis at 8 uM using chromogenic substrate spectrozyme PL by Michaelis-Menten plot analysis

[14] = substrate: O=c1c(OS(=O)(=O)O)c(-c2ccc(OS(=O)(=O)O)c(OS(=O)(=O)O)c2)oc2cc(OS(=O)(=O)O)cc(OCc3ccc(COc4cc(OS(=O)(=O)O)cc5oc(-c6ccc(OS(=O)(=O)O)c(OS(=O)(=O)O)c6)c(OS(=O)(=O)O)c(=O)c45)cc3)c12; details: Homo sapiens; 100 uM; remark: listed apart in the source
[15] = substrate: O=c1c(O)c(-c2ccc(O)c(O)c2)oc2cc(O)cc(OCc3ccc(COc4cc(O)cc5oc(-c6ccc(O)c(O)c6)c(O)c(=O)c45)cc3)c12; details: Homo sapiens; 240 uM; remark: listed apart in the source
Description: Competitive allosteric inhibition of human plasmin assessed as Vmax for substrate hydrolysis at 240 uM using chromogenic substrate spectrozyme PL by Michaelis-Menten plot analysis

[16] = substrate: O=c1c(OS(=O)(=O)O)c(-c2ccc(OS(=O)(=O)O)c(OS(=O)(=O)O)c2)oc2cc(OS(=O)(=O)O)cc(OCc3ccc(COc4cc(OS(=O)(=O)O)cc5oc(-c6ccc(OS(=O)(=O)O)c(OS(=O)(=O)O)c6)c(OS(=O)(=O)O)c(=O)c45)cc3)c12; details: Homo sapiens; 200 uM; remark: listed apart in the source

B1: Plasminogen (Homo sapiens), P00747 (protein)
chain: MEHKEVVLLLLLFLKSGQGEPLDDYVNTQGASLFSVTKKQLGAGSIEECAAKCEEDEEFTCRAFQYHSKEQQCVIMAENRKSSIIIRMRDVVLFEKKVYLSECKTGNGKNYRGTMSKTKNGITCQKWSSTSPHRPRFSPATHPSEGLEENYCRNPDNDPQGPWCYTTDPEKRYDYCDILECEEECMHCSGENYDGKISKTMSGLECQAWDSQSPHAHGYIPSKFPNKNLKKNYCRNPDRELRPWCFTTDPNKRWELCDIPRCTTPPPSSGPTYQCLKGTGENYRGNVAVTVSGHTCQHWSAQTPHTHNRTPENFPCKNLDENYCRNPDGKRAPWCHTTNSQVRWEYCKIPSCDSSPVSTEQLAPTAPPELTPVVQDCYHGDGQSYRGTSSTTTTGKKCQSWSSMTPHRHQKTPENYPNAGLTMNYCRNPDADKGPWCFTTDPSVRWEYCNLKKCSGTEASVVAPPPVVLLPDVETPSEEDCMFGNGKGYRGKRATTVTGTPCQDWAAQEPHRHSIFTPETNPRAGLEKNYCRNPDGDVGGPWCYTTNPRKLYDYCDVPQCAAPSFDCGKPQVEPKKCPGRVVGGCVAHPHSWPWQVSLRTRFGMHFCGGTLISPEWVLTAAHCLEKSPRPSSYKVILGAHQEVNLEPHVQEIEVSRLFLEPTRKDIALLKLSSPAVITDKVIPACLPSPNYVVADRTECFITGWGETQGTFGAGLLKEAQLPVIENKVCNRYEFLNGRVQSTELCAGHLAGGTDSCQGDSGGPLVCFEKDKYILQGVTSWGLGCARPNKPGVYVRVSRFVTWIEGVMRNN
Vmax [1]: 15.1 mAU/min | Km [2]: 807 µM | Km [3]: 20 µM | Km [4]: 357 µM | Km [5]: 1120 µM | Vmax [6]: 51.3 mAU/min | Vmax [7]: 22.1 mAU/min | Vmax [8]: 36.3 mAU/min | Vmax [9]: 10.4 mAU/min | Vmax [10]: 51 mAU/min | Km [11]: 50 µM | Km [12]: 20 µM | Vmax [13]: 29 mAU/min | Km [14]: 8 µM | Vmax [15]: 51.7 mAU/min | Km [16]: 4 µM
